# In IntAct's records for PubMed 27615052:
# B1: E3 ubiquitin-protein ligase LRSAM1 (Homo sapiens), Q6UWE0 (parent)
# chain: MPLFFRKRKPSEEARKRLEYQMCLAKEAGADDILDISKCELSEIPFGAFATCKVLQKKVLIVHTNHLTSLLPKSCSLLSLATIKVLDLHDNQLTALPDDLGQLTALQVLNVERNQLMQLPRSIGNLTQLQTLNVKDNKLKELPDTVGELRSLRTLNISGNEIQRLPQMLAHVRTLEMLSLDASAMVYPPREVCGAGTAAILQFLCKESGLEYYPPSQYLLPILEQDGIENSRDSPDGPTDRFSREELEWQNRFSDYEKRKEQKMLEKLEFERRLELGQREHTQLLQQSSSQKDEILQTVKEEQSRLEQGLSEHQRHLNAERQRLQEQLKQTEQNISSRIQKLLQDNQRQKKSSEILKSLENERIRMEQLMSITQEETESLRRRDVASAMQQMLTESCKNRLIQMAYESQRQNLVQQACSSMAEMDERFQQILSWQQMDQNKAISQILQESAMQKAAFEALQVKKDLMHRQIRSQIKLIETELLQLTQLELKRKSLDTESLQEMISEQRWALSSLLQQLLKEKQQREEELREILTELEAKSETRQENYWLIQYQRLLNQKPLSLKLQEEGMERQLVALLEELSAEHYLPIFAHHRLSLDLLSQMSPGDLAKVGVSEAGLQHEILRRVQELLDAARIQPELKPPMGEVVTPTAPQEPPESVRPSAPPAELEVQASECVVCLEREAQMIFLNCGHVCCCQQCCQPLRTCPLCRQDIAQRLRIYHSS
# Variants of: B1
# Conditions: with G3BP1, Q13283
# Chain of G3BP1, Q13283 (Q13283 whole entry, looked up): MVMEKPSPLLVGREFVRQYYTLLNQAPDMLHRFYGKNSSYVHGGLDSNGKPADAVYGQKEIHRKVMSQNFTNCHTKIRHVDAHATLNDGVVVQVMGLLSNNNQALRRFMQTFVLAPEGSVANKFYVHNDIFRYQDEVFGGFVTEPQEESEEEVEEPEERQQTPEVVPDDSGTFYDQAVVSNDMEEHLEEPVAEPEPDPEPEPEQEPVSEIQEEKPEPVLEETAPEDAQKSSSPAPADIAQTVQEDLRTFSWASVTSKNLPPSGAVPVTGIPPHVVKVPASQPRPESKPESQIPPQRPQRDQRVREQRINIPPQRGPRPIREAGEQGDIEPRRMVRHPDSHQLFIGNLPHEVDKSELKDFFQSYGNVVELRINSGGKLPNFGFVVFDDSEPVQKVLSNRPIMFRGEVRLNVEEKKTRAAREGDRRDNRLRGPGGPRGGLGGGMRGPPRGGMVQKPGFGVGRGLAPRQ
row,effect of a mutation on the interaction,Variant
1,disrupting interaction strength,C694R

# Variants of: B1
# Conditions: with fus_mouse Fus
row,effect of a mutation on the interaction,Variant
1,disrupting interaction strength,C694R
